Laboratory results taken from patent US20180119164A1.

Key:
Test in all cases: cell-based or functional assay
[1] = target: Env of HIV pseudovirus MN (HIV strain MN) (UniProt P05877)
[2] = target: Env of HIV pseudovirus CAP45 (HIV strain CAP45)
[3] = target: Env of HIV pseudovirus ADA (HIV strain ADA)
[4] = target: Env of HIV pseudovirus TRO.11 (HIV strain TRO.11)
[5] = target: Env of HIV pseudovirus DU156.12 (HIV strain DU156.12)
[6] = target: Env of HIV pseudovirus DU422.1 (HIV strain DU422.1)
[7] = target: Env of HIV pseudovirus JRFL (HIV strain JRFL)
[8] = target: Env of HIV pseudovirus PVO (HIV strain PVO)
[9] = target: Env of HIV pseudovirus YU2 (HIV strain YU2) (UniProt P35961)
Sequence of UniProt P35961 (P35961 32-843 limits assumed): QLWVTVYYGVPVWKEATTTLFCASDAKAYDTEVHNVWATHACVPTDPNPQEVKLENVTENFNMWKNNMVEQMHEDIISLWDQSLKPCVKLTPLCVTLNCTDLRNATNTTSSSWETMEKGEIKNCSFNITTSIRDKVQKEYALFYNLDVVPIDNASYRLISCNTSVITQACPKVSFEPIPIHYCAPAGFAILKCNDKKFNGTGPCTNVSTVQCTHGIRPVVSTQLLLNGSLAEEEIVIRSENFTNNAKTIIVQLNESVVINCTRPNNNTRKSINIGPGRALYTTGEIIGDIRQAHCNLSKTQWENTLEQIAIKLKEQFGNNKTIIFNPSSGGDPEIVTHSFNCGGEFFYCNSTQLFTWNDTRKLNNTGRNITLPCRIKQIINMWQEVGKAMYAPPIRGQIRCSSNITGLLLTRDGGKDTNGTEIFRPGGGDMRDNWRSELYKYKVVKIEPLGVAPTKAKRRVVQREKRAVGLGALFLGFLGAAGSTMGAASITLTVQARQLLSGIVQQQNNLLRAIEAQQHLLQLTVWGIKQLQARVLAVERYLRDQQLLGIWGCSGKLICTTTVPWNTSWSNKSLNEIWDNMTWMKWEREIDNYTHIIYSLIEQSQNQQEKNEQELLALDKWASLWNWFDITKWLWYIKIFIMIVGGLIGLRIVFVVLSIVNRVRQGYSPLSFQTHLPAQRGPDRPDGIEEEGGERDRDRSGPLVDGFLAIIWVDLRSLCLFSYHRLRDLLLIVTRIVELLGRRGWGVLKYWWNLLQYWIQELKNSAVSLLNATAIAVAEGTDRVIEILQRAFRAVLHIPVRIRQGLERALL

[10] = target: Env of HIV pseudovirus JRCSF (HIV strain JRCSF) (UniProt P20871)
Sequence of UniProt P20871 (P20871 32-848 limits assumed): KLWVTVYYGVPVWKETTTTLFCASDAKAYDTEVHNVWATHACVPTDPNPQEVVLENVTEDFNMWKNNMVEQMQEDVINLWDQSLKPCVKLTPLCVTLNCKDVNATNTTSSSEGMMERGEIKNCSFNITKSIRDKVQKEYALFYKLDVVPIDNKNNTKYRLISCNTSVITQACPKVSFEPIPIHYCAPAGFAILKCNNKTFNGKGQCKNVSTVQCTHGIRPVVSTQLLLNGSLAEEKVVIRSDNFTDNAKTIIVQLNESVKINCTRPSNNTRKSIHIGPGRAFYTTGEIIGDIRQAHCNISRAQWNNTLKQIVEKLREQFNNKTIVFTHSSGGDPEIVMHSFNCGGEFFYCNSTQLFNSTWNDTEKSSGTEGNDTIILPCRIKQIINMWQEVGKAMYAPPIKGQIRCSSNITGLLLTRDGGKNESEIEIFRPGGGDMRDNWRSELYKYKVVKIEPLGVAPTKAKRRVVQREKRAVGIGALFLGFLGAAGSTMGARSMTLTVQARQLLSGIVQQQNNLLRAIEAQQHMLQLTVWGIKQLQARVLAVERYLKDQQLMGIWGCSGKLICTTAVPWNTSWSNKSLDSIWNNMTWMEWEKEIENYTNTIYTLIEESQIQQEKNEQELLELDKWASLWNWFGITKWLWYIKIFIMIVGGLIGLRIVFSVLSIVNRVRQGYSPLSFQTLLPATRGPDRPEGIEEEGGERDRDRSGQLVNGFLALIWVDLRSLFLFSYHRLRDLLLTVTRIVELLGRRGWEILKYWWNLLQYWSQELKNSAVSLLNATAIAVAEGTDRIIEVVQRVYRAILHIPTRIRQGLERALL

[11] = target: Env of HIV pseudovirus ZM214M (HIV strain ZM214M)

Sequence of UniProt P05877 (P05877 32-856 limits assumed): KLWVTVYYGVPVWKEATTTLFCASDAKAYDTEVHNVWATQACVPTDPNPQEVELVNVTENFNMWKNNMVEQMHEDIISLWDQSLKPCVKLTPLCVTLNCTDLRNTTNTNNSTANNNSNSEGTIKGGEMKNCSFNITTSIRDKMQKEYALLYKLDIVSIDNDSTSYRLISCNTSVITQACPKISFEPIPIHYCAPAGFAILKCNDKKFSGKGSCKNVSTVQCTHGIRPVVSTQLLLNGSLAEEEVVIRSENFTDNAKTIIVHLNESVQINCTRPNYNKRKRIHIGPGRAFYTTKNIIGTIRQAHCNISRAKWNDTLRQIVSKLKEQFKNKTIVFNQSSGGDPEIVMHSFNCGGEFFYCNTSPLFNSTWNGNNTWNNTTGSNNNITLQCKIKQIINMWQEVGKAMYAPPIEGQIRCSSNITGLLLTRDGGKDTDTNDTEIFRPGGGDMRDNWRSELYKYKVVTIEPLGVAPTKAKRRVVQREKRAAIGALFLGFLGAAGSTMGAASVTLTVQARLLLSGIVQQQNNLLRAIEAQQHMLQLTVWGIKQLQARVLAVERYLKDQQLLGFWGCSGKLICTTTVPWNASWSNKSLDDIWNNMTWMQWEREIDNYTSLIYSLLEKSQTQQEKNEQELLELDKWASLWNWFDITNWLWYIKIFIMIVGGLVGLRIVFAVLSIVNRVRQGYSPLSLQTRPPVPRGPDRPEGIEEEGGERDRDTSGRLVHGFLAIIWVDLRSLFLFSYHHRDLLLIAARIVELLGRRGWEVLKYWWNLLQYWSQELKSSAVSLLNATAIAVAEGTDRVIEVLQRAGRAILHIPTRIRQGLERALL

Substance	IC50, pseudovirus neutralization (TZM-bl luciferase) [1] [µg/mL]	IC50, pseudovirus neutralization (TZM-bl luciferase) [2] [µg/mL]	IC50, pseudovirus neutralization (TZM-bl luciferase) [3] [µg/mL]	IC50, pseudovirus neutralization (TZM-bl luciferase) [4] [µg/mL]	IC50, pseudovirus neutralization (TZM-bl luciferase) [5] [µg/mL]	IC50, pseudovirus neutralization (TZM-bl luciferase) [6] [µg/mL]	IC50, pseudovirus neutralization (TZM-bl luciferase) [7] [µg/mL]	IC50, pseudovirus neutralization (TZM-bl luciferase) [8] [µg/mL]	IC50, pseudovirus neutralization (TZM-bl luciferase) [9] [µg/mL]	IC50, pseudovirus neutralization (TZM-bl luciferase) [10] [µg/mL]	IC50, pseudovirus neutralization (TZM-bl luciferase) [11] [µg/mL]
^CHOPG9 (antibody)	> 50	< 0.02	42.8	> 50	0.35	10.9	> 50	> 50	> 50	< 0.02	> 50
^ΔXFPG9 (antibody)	> 50	0.65	> 50	> 50	> 50	> 50	> 50	> 50	> 50	0.19	> 50
^ΔXFPG9Sulf (antibody)	> 50	0.03	37.4	> 50	1.2	14.3	> 50	> 50	> 50	< 0.02	> 50
^ΔXFPG9SulfSia (antibody)	> 50	< 0.02	40.2	> 50	0.9	6.6	> 50	> 50	> 50	0.03	> 50
